T1: hsGLUT4 G65A (human, UniProt P14672 1-509)
T1 sequence: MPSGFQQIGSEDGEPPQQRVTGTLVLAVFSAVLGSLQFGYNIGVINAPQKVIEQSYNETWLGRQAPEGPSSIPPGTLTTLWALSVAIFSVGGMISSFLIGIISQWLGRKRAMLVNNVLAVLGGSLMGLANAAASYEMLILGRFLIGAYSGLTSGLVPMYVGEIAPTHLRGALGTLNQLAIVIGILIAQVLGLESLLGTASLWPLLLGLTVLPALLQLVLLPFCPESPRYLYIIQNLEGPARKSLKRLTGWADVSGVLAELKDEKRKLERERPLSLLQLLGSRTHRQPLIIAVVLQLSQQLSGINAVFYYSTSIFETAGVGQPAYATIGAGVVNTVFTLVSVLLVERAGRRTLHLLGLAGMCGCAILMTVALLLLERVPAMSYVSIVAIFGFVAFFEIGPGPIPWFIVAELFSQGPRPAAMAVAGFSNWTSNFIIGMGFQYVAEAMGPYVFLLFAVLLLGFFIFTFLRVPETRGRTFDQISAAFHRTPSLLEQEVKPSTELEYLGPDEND

T2: hsGLUT4 F405A (human, UniProt P14672 1-509)
T2 sequence: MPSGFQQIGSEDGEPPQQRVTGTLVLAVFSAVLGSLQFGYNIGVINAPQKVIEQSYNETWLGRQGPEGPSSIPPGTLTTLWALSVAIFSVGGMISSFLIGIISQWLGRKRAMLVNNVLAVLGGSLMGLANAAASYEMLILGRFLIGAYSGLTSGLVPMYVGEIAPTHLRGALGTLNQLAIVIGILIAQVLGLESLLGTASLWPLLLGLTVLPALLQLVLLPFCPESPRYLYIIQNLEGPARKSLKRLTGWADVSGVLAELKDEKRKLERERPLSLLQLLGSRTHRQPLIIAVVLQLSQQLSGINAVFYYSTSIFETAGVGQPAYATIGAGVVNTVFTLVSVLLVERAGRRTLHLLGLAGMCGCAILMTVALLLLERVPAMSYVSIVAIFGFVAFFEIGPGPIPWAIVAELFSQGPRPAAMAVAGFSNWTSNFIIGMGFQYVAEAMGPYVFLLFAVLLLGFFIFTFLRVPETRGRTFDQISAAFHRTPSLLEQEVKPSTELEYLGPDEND

T3: hsGLUT4 I163A (human, UniProt P14672 1-509)
T3 sequence: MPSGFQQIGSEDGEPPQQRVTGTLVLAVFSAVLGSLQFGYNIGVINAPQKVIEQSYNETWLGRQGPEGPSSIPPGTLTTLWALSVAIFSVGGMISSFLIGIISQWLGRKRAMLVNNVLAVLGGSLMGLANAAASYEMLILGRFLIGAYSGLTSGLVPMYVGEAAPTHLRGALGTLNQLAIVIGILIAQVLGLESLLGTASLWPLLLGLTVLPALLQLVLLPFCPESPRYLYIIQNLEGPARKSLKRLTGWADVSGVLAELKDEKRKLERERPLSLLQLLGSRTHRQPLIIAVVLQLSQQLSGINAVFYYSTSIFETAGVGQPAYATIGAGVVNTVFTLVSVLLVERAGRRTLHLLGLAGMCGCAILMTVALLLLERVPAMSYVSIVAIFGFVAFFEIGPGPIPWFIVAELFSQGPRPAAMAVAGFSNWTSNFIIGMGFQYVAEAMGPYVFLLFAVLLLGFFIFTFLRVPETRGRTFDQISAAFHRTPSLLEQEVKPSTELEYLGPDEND

T4: hsGLUT4 Q295A (human, UniProt P14672 1-509)
T4 sequence: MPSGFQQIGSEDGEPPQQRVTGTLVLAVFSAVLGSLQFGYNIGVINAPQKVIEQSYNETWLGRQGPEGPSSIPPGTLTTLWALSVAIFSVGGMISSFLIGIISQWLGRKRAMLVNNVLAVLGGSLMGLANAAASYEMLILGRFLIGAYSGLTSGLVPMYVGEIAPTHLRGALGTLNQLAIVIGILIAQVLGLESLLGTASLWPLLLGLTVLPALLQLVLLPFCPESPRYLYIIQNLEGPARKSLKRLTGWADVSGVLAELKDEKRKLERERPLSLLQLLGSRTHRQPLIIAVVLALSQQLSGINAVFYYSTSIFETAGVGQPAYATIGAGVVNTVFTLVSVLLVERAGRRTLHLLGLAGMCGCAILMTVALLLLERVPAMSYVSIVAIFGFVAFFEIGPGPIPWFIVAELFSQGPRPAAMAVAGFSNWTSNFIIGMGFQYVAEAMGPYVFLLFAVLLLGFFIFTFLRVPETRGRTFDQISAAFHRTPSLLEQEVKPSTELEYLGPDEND


Tests used:
Test in all cases: flow cytometry, alanine-scan library in HEK-293T
hsGLUT4 G65A = target: T1, hsGLUT4 G65A
Procedure, shortened: (§1)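 HEK-293T cells expressing individual GLUT4 alanine mutants were stained 48 h post-transfection with anti-GLUT4 scFv MAbs (2 μg/ml), then biotinylated secondary and streptavidin-PerCP, and read by high-throughput flow cytometry. Where used, cytochalasin B (10 uM final) was given for 30 min before and during primary antibody staining.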

hsGLUT4 F405A = target: T2, hsGLUT4 F405A
Procedure, shortened: as §1

hsGLUT4 I163A = target: T3, hsGLUT4 I163A
Procedure, shortened: as §1

hsGLUT4 Q295A = target: T4, hsGLUT4 Q295A
Procedure, shortened: as §1

Row | Molecule | % of binding to wild type GLUT4 (hsGLUT4 G65A) | % of binding to wild type GLUT4 (hsGLUT4 F405A) | % of binding to wild type GLUT4 (hsGLUT4 I163A) | % of binding to wild type GLUT4 (hsGLUT4 Q295A)
1 | 1F8 (antibody) | 95% | 107% | 91% | 81%
2 | AB101 (scFv, Chicken-derived clone used as a control; the four lead clones were tested as scFv-human IgG1 Fc; also called MAb AB101) scFv: ALTQPSSVSANPGETVKITCSGSSNSYGWYQQKSPGSAPVTVIYYNDKRPSDIPSRFSGSKSDSTHTLTITGVRAEDEAVYFCGSYDSTYVGIFGAGTTLTVLGQSSRSSGGGGSSGGGGSAVTLDESGGGLQTPGGTLSLVCKASGFTFSSNAMGWVRQAPGKGLEWVAGISSDGRYTKYGSAVKGRATISRDNGQSTVRLQLNNLRAEDTGTYFCAKAFGNNYRRIYAGQIDAWGHGTEVIVSS | 87% | 106% | 115% | 102%
3 | AB111 (Fc fusion, Bivalent scFv-Fc; also called MAb AB111; not shown: Fc fragment of human IgG1, cloned in frame with the scFv) scFv: ALTQPSSVSANPGETVKITCSGSGSWYGWFQQKSPGSAPVTVIYSNDKRPSDIPSRFSGSKSGSTSTLTITGVQVEDEAVYYCGNWDIFGAGTTLTVLGQSSRSSGGGGSSGGGGSAVTLDESGGGLQTPGGALSLVCKASGFTFSSHGMGWVRQAPGKGLEWVASISTGRYTFYAPAVKGRATISRDNGQSTVRLQLNNLRAEDTATYYCTKCAGLNGCGGGEIDAWGHGTEVIVSS | 15% | 118% | 87% | 138%
4 | AB108 (Fc fusion, Bivalent scFv-Fc; also called MAb AB108; not shown: Fc fragment of human IgG1, cloned in frame with the scFv) scFv: ALTQPSSVSANLGGTVKITCSGSSGSYGWYQQKAPGSAPVTLIYRNDKRPSDIPSRFSGSESGSTGTLTITGVQAEDEAVYFCGGYDSSAGYAAFGAGTTLTVLGQSSRSSGGGGSSGGGGSAVTLDESGGGLQTPGGALSLVCKASGFTFSSHGMGWVRQAPGKGLEWVGSISTGRYTFYAPAVKGRATISRDNGQSTLRLQLNNLRAEDTGTYYCTKCAGLNGCGGGEIDAWGHGTEVIVSS | 1% | 103% | 90% | 113%
